B1: DNCR2-casp-9: caspase-9 fused to DNCR2 (protein)
chain: MSSDEEEARELIERAKEAAERAQEAAERTGDPRVRELARELKRLAQEAAEEVKRDPSSSDVNEALKLIVEAIEAAVDALEAAERTGDPEVRELARELVRLAVEAAEEVQRNPSSSDVNEALHSIVYAIEAAIFALEAAERTGDPEVRELARELVRLAVEAAEEVQRNPSSRNVEHALMRIVLAIYLAEENLREAEESGDPEKREKARERVREAVERAEEVQRDPSGWLNHSGSASGSGGFGDVGALESLRGNADLAYILSMEPCGHCLIINNVNFCRESGLRTRTGSNIDCEKLRRRFSSLHFMVEVKGDLTAKKMVLALLELAQQDHGALDCCVVVILSHGCQASHLQFPGAVYGTDGCPVSVEKIVNIFNGTSCPSLGGKPKLFFIQACGGEQKDHGFEVASTSPEDESPGSNPEPDATPFQEGLRTFDQLAAISSLPTPSDIFVSYSTFPGFVSWRDPKSGSWYVETLDDIFEQWAHSEDLQSLLLRVANAVSVKGIYKQMPGCFNFLRKKLFFKTSGSGATNFSLLKQAGDVEENPG
B2: GNCR1-casp-9: caspase-9 fused to GNCR1 (protein)
chain: MDIEKLCKKAEEEAKEAQEKADELRQRHPDSQAAEDAEDLANLAVAAVLTACLLAQEHPNADIAKLCIKAASEAAEAASKAAELAQRHPDSQAARDAIKLASQAARAVILAIMLAAENPNADIAKLCIKAASEAAEAASKAAELAQRHPDSQAARDAIKLASQAAEAVERAIWLAAENPNADIAKKCIKAASEAAEEASKAAEEAQRHPDSQKARDEIKEASQKAEEVKERCKSGSASGSGGFGDVGALESLRGNADLAYILSMEPCGHCLIINNVNFCRESGLRTRTGSNIDCEKLRRRFSSLHFMVEVKGDLTAKKMVLALLELAQQDHGALDCCVVVILSHGCQASHLQFPGAVYGTDGCPVSVEKIVNIFNGTSCPSLGGKPKLFFIQACGGEQKDHGFEVASTSPEDESPGSNPEPDATPFQEGLRTFDQLDAISSLPTPSDIFVSYSTFPGFVSWRDPKSGSWYVETLDDIFEQWAHSEDLQSLLLRVANAVSVKGIYKQMPGCFNFLRKKLFFKTS
B3: dimer-NS3a: NS3a fused to C-terminus of designed homo-oligomeric helical bundle, dimer (SEQ ID NO: 42) (protein)
chain: MTRTEIIRELERSLREQEELAKRLKELLRELERLQREGSSDEDVRELLREIKELVEEIEKLAREQKYLVEELKRQDGSASGSASMKKKGSVVIVGRINLSGDTAYSQQTRGLEGCQETSQTGRDKNQVEGEVQVVSTATQSFLATSINGVLWTVYHGAGTRTIASPKGPVTQMYTNVDKDLVGWQAPQGSRSLTPCTCGSSDLYLVTRHADVIPVRRRGDSRGSLLSPRPISYLKGSAGGPLLCPAGHAVGIFRAAVSTRGVAKAVDFIPVESLETTMRSP
B4: hexamer-NS3a: NS3a fused to C-terminus of designed homo-oligomeric helical bundle, hexamer (SEQ ID NO: 43) (protein)
chain: MTEDEIRKLRKLLEEAEKKLKKLEDKTRRSEEISKTDDDPKAQSLQLIAESLMLIAESLLIIAISLLLSSRNGSASGSASMKKKGSVVIVGRINLSGDTAYSQQTRGLEGCQETSQTGRDKNQVEGEVQVVSTATQSFLATSINGVLWTVYHGAGTRTIASPKGPVTQMYTNVDKDLVGWQAPQGSRSLTPCTCGSSDLYLVTRHADVIPVRRRGDSRGSLLSPRPISYLKGSAGGPLLCPAGHAVGIFRAAVSTRGVAKAVDFIPVESLETTMRSP

Test system: Jurkat cells
Assay: Kill switch percent killing in Jurkat cells (flow cytometry)
Type: cell-based
Details: for percent killing in the absence of a scaffolded NS3a: danoprevir or grazoprevir treatment, 500 nM
Description: Kill switch-positive cells (le5) were incubated for 24-48 hours with inducer drug before staining and analysis for death. Conditions were normalized to contain about 50% transduction positive (+) cells by adding untransduced Jurkat or primary T cells in order to get accurate statistics on death.
Flow cytometry was performed on a Ze5 cytometer (Biorad). To determine expression of markers, between 1×10^5-2×10^5 total cells were transferred to a U-bottom 96 well culture dish (Corning). Cells were washed twice with Cell Staining Buffer (BioLegend), then stained with Zombie Violet (1:1000, BioLegend) and ROR1-FC for ROR1-specific CAR constructs (20 min at room temperature). Cells were washed twice in Cell Staining Buffer, then stained with Annexin V-PE (BD) in 1× Annexin V Binding Buffer (BD) for 15 min at room temperature. After staining, cells were washed once with Annexin V Binding Buffer, resuspended in AnneinV Binding Buffer and immediately analyzed.
Flow cytometry data was analyzed using FlowJo 10 (Tree Star). Percent killing was calculated by gating on live cells, then calculating 100*((percent GFP positive DMSO condition)−(percent GFP positive drug condition))/(percent GFP positive DMSO condition).
We first tested for drug-induced death of Jurkat cells by fusing NS3a and DNCR2 separately to the catalytic domain of caspase-9 (NCDC). The small molecule inducible homodimer FKBP-F36V (iCasp9), which is dimerized by AP1903 (rimiducid) and the inducible heterodimer FKBP/rapamycin/FRB dimer (rapaCasp9) were used as controls. Briefly, Jurkat cells expressing NCDC, iCasp9, or rapaCasp9 were exposed to danoprevir, rimiducid or rapamycin, respectively, for 24 hours and analyzed by flow cytometry with gating set to measure killing in the top about 10% of cells expressing the highest amount of the GFP kill switch transduction marker.
To evaluate the kill switch designs of FIG. 8A, constructs were expressed in Jurkat cells, treated with 500 nM danoprevir (DNCR2-casp-9) or 500 nM grazoprevir (GNCR1-casp-9) and cell death measured by percent killing as described herein above.
The miniaturized versions of DNCR2, D1 and D9, were fused to caspase-9 and co-expressed in Jurkat cells with homo-oligomerized NS3a scaffolds. We also evaluated a CAR construct that included an additional copy of NS3a (CAR-2×NS3a). The original DNCR2-casp-9 was used as a control. Jurkat cells expressing different DNCR2 variants fused to caspase-9 along with CAR-NS3a, CAR-NS3a-NS3a, or dimer-NS3a were treated with 500 nM danoprevir and cell death was measured by percent killing as described herein above.
We explored the ability of other human killing domains to induce cell death in Jurkat and primary human T cells. We fused FKBP-F36V to a panel of killing domains that included caspase-9 D330A, caspase-9, caspase-1, caspase-4, and the necroptosis-inducing protein RIPK3. Briefly, Jurkat and primary human CD4+/CD8+ T cells expressing FKBP(F36V)-fused killing domains were treated with 10 nM rimiducid and cell death was measured by percent killing as described herein above.

Molecule | percent killing in the absence of a scaffolded NS3a | other results
B1 | did not induce Jurkat death | 
B2 | did not induce Jurkat death | 
B3 |  | percent killing, NS3a scaffold with DNCR2-casp-9 (500 nM danoprevir): comparable killing to iCasp9
B4 |  | percent killing, NS3a scaffold with GNCR1-casp-9 (500 nM grazoprevir): modest death
